Reference: US20260184814A1 (HUMABS BIOMED, published 2026)
Residue numbers refer to the chain shown, from its start.

Assays:
[1] = target: T1, N2 neuraminidase from A/Leningrad/134/17/57 (Influenza A virus A/Leningrad/134/17/57, UniProt Q67214 1-469); assay: flow cytometry, NA transiently expressed on Expi-CHO cells
[2] = target: IBV neuraminidase from B/Lee/10/1940 (Ancestral) (Influenza B virus B/Lee/10/1940, UniProt P03474 1-466); assay: as above
[3] = target: T1, N2 neuraminidase from …; assay: flow cytometry, NA on cells
N1 [4] = assay: ELISA on N1 NA
N1 [5] = assay: Bio-Layer Interferometry (BLI)
[6] = target: T2, N2 neuraminidase from A/Washington/01/2007 (Influenza A virus A/Washington/01/2007); assay: flow cytometry, NA transiently expressed on Expi-CHO cells
T2 construct: whole, on cells

[7] = target: N6 neuraminidase from A/swine/Ontario/01911/1/99 (Influenza A virus …); assay: as above
[8] = target: N8 A/HARBOR SEAL/NEW …/179629/2011 (Influenza A virus); assay: as above
[9] = target: N9 neuraminidase from A/Anhui/1/2013 (Influenza A virus A/Anhui/1/2013 (H7N9)); assay: as above
N1 [10] = assay: Bio-Layer Interferometry (BLI); printed as kdis

B1: FNI9 (antibody, V domains shown)
VH: QVHLVQSGAEVKEPGSSVTVSCKASGGSFNNQAISWVRQAPGQGLEWMGGIFPISGTPTSAQRFQGRVTFTADESTTTVYMDLSSLRSDDTAVYYCARAGSDYFNRDLGWENYYFASWGQGTLVTVSS
VL: EIVMTQSPATLSLSSGERATLSCRASRSVSSNLAWYQQKPGQAPRLLIYDASTRATGFSARFAGSGSGTEFTLTISSLQSEDSAIYYCQQYNNWPPWTFGQGTKVEIK
[1]
  lowest concentration at which binding was observed (EC50 scale class): 0.4 µg/mL
[2]
  lowest concentration at which binding was observed (EC50 scale class): 0.4 µg/mL

B2: v11.7 (antibody, V domains shown)
VH: B1 VH with P58A, S60Y, F70I
VL: B1 VL with N93I
[3]
  binding result: binds

B3: v4.1 (antibody, V domains shown)
VH: B1 VH with N30S
VL: B1 VL
[3]
  binding result: binds

B4: v11.1 (antibody, V domains shown)
VH: B1 VH with P58A, S60Y, F70I
VL: B1 VL
[3]
  binding result: binds

B5: v5.7 (antibody, V domains shown)
VH: B1 VH with N31K
VL: B1 VL with N93I
[3]
  binding result: binds

B6: v8.7 (antibody, V domains shown)
VH: B1 VH with S28T
VL: B1 VL with N93I
[3]
  binding result: binds

B7: FNI9-v8.1 (antibody, V domains shown)
VH: B1 VH with S28T
VL: B1 VL
[3]
  binding result: binds

B8: v4.7 (antibody, V domains shown)
VH: B1 VH with N30S
VL: B1 VL with N93I
[3]
  binding result: binds

B9: v6.1 (antibody, V domains shown)
VH: B1 VH with D102E
VL: B1 VL
[3]
  binding result: binds

B10: v9.1 (antibody, V domains shown)
VH: B1 VH with P58A, F70I
VL: B1 VL
[3]
  binding result: binds

B11: v5.1 (antibody, V domains shown)
VH: B1 VH with N31K
VL: B1 VL
[3]
  binding result: binds

B12: v12.1 (antibody, V domains shown)
VH: B1 VH with P58A, T59N, S60Y, F70I
VL: B1 VL
[3]
  binding result: binds

B13: v7.7 (antibody, V domains shown)
VH: B1 VH with N112Q
VL: B1 VL with N93I
[3]
  binding result: binds

B14: v9.7 (antibody, V domains shown)
VH: B1 VH with P58A, F70I
VL: B1 VL with N93I
[3]
  binding result: binds

B15: v6.7 (antibody, V domains shown)
VH: B1 VH with D102E
VL: B1 VL with N93I
[3]
  binding result: binds

B16: v7.1 (antibody, V domains shown)
VH: B1 VH with N112Q
VL: B1 VL
[3]
  binding result: binds

B17: v12.7 (antibody, V domains shown)
VH: B1 VH with P58A, T59N, S60Y, F70I
VL: B1 VL with N93I
[3]
  binding result: binds

B18: FNI3 (antibody, V domains shown)
VH: QVQLVQSGAEVKRPGSSVKVSCKASGATFSNNVIAWVRQAPGQGLEWMGGIHPISATATYAQKFQGRVAIAADELTSTAYMELNGLRSEDSAVYYCARAGSDYFNRDLGWENYYFDSWGQGTLVTVSS
VL: EILMTQSPATLSVSPGERATLSCRASQDVSGNLAWYQQRPGQAPRLLIYGASTRATGVPARFTGAGSGTEFTLTISSLQSEDFALYYCQHYNNWPPWTFGQGTKVEIK
N1 [4]
  EC50 (read off the curve): ~0.007 µg/mL
N1 [5]
  Kd: < 1 pM
  kon: 39500 M⁻¹ s⁻¹
[1]
  lowest concentration at which binding was observed (EC50 scale class): 0.4 µg/mL
[2]
  lowest concentration at which binding was observed (EC50 scale class): 0.4 µg/mL
[6]
  lowest concentration at which binding was observed (EC50 scale class): 10 µg/mL
[7]
  lowest concentration at which binding was observed (EC50 scale class): 0.4 µg/mL
[8]
  lowest concentration at which binding was observed (EC50 scale class): 50 µg/mL
[9]
  lowest concentration at which binding was observed (EC50 scale class): 0.4 µg/mL
N1 [10]
  koff: < 1e-07 s⁻¹
